B1: Natural cytotoxicity triggering receptor 3 (Homo sapiens), O14931 (parent)
chain: MAWMLLLILIMVHPGSCALWVSQPPEIRTLEGSSAFLPCSFNASQGRLAIGSVTWFRDEVVPGKEVRNGTPEFRGRLAPLASSRFLHDHQAELHIRDVRGHDASIYVCRVEVLGLGVGTGNGTRLVVEKEHPQLGAGTVLLLRAGFYAVSFLSVAVGSTVYYQGKCLTWKGPRRQLPAVVPAPLPPPCGSSAHLLPPVPGG
partner: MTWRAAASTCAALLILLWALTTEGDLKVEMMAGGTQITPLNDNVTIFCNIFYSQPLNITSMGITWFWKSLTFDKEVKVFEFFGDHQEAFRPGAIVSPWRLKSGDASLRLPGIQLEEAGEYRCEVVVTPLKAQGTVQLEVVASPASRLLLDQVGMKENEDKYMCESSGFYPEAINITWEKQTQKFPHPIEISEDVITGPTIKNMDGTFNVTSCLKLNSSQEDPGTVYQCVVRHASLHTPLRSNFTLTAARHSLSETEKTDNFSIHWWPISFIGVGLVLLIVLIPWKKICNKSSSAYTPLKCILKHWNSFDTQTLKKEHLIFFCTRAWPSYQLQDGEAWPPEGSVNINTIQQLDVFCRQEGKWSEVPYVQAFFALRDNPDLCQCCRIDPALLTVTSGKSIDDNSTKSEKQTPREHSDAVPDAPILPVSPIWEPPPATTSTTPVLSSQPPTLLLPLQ

Variants of: B1
Conditions: with nr3l1_human NCR3LG1, Q68D85

Row | Variant | effect of a mutation on the interaction
1 | I50A;S52A | decreasing interaction strength
2 | E65S;R67S | decreasing interaction strength
3 | R109E;E111R;L113A | decreasing interaction strength
4 | R109S;E111S;L113A | decreasing interaction strength
